Results reported in US20190154677.
Read-outs that look alike come from different tables or passages of the source.

Legend:
[1] = target: Hepatitis B surface antigen (HBs Ag) (Hepatitis B virus) (UniProt P03141); settings: magnetic bead pulldown with q-PCR, BD buffer, room temperature
[2] = target: Hepatitis B surface antigen (HBs Ag) (Hepatitis B virus) (UniProt P03141); settings: magnetic bead pulldown with q-PCR, BD buffer, room temperature; remark: listed apart in the source

Hepatitis B surface antigen (HBs Ag) (Hepatitis B virus), sequence (P03141 175-400): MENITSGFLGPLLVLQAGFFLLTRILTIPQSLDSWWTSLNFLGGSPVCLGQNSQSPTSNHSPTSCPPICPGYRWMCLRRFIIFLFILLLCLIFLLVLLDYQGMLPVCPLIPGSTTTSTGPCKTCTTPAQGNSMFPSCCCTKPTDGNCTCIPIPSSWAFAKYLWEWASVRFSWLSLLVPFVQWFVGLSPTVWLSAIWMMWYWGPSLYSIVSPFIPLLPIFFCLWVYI

Sequence	Kd [1] [nM]	Kd [2] [nM]
AGCAGCACAGAGGTCCTGCATCACGAAGCCTGGCAGCGTGCTACCGTGAA [MP-1]	28.3	–
AGCAGCACAGAGGTCCCAACCGGAATCTGCACCTCGCGTGCTACCGTGAA [K2-4]	–	31.4
